The values that follow come from patent US20150299686A1.

In data set [1] the target is FrsA (Fermentation Respiration Switch) protein from Vibrio vulnificus, wild type, recombinant (Vibrio vulnificus) (UniProt Q7MN61). The data set can be described thus: cell-based or functional assay.
For data set [2], the target named is non-phosphorylated recombinant IIA^Glc protein (crr gene product) from Vibrio vulnificus.
In data set [3] the target is phosphorylated recombinant IIA^Glc protein (crr gene product) from Vibrio vulnificus.

As for “non-phosphorylated recombinant IIA^Glc protein (crr gene product) from Vibrio vulnificus”, the catalytic activity of FrsA as fold over PDC in data set [1] was 17 times.

B1: FrsA (Fermentation Respiration Switch) protein from Vibrio vulnificus, wild type, recombinant (protein)
chain: MSEEVSKNLSETLFVKHKQAIETSALTQYMPTSQSLLDEIKEKNGFSWYRNLRRLQWVWQGVDPIEQEQVLARIASSKHSRTDEQWLDTVMGYHSGNWAYEWTRLGMEHQKRAGEMTNEAASEALFSASLCYSIAGYPHLKSDNLAIQAQVLANSAYLEAAKKSKYIIKQLEIPFEKGKITAHLHLTNTDKPHPVVIVSAGLDSLQTDMWRLFRDHLAKHDIAMLTVDMPSVGYSSKYPLTEDYSRLHQAVLNELFSIPYVDHHRVGLIGFRFGGNAMVRLSFLEQERIKACVILGAPIHDIFASPQKLQQMPKMYLDVLASRLGKSVVDIYSLSGQMAAWSLKVQGFLSSRKTKVPILAMSLEGDPVSPYSDNQMVAFFSTYGKAKKISSKTITQGYEQSLDLAIKWLEDELLR
In the case of B1, in data set [2], the Km (pyruvate decarboxylation by FrsA with dephospho-IIA^Glc added) was determined as 390 µM, the kcat (pyruvate decarboxylation by FrsA with dephospho-IIA^Glc added) came to 2980 ± 158 s⁻¹ and the kcat/Km (pyruvate decarboxylation by FrsA with dephospho-IIA^Glc added) worked out at 7.64e+06 ± 713000 M⁻¹ s⁻¹. Further, in data set [3], the Km (pyruvate decarboxylation by FrsA with phospho-IIA^Glc added) came out at 390 µM, the kcat (pyruvate decarboxylation by FrsA with phospho-IIA^Glc added) was 1310 ± 48 s⁻¹ and the kcat/Km (pyruvate decarboxylation by FrsA with phospho-IIA^Glc added) stood at 3.36e+06 ± 150000 M⁻¹ s⁻¹.
